The source of these data is US20210061908A1 (IOMX THERAPEUTICS, published 2021).

Numbering of substitutions follows the chain as printed. Some results are limits rather than exact numbers.

T1: extracellular domain (ECD) of human IGSF11 (VSIG3), HIS-tagged (human, UniProt Q5DX21 23-241, biotinylated in the ELISA of Example 4 (site not stated))
T1 construct: also called HIS-IGSF11; IGSF11-HIS; not shown: HIS6 tag
T1 sequence: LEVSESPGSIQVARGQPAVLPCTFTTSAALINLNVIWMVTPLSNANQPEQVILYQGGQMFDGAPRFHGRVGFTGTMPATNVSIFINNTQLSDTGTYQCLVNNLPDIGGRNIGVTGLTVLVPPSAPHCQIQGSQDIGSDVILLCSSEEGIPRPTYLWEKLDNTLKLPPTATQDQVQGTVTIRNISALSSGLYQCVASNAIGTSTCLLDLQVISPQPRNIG

T2: IGSF11 (VSIG3), construct used in SPR and BLI not stated (UniProt Q5DX21 23-241, limits assumed)
T2 sequence (looked up): T1 sequence

T3: human IGSF11 (VSIG3) expressed on the surface of cells (human, UniProt Q5DX21 23-431)
T3 construct: one molecule for all cell lines; the cell line is named under assay; also called IGSF11-expressing cells; HEK-OE
T3 sequence: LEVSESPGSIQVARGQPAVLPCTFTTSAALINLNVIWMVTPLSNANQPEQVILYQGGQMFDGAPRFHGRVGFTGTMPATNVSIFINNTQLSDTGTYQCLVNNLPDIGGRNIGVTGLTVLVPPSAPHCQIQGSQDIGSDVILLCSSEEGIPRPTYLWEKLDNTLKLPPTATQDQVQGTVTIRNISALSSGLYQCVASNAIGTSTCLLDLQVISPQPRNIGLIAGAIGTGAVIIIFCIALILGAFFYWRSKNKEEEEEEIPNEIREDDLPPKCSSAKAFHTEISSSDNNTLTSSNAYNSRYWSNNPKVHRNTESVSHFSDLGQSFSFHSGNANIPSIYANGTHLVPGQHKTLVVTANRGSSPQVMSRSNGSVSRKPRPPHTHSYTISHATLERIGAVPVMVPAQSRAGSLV

B1: B-003 (chain-swapped, human IgG1 format) (antibody, V domains shown)
VH: EVQLLESGGGLIQPGGSLRLSCAVSGFTVSSNYMSWVRQAPGKGLEWVSVIYSGGSTYYADSVKGRFTISRDNSKNTLYLQMNSLRAEDTAVYYCARGNPYYYGDLQVNFDYWGQGTLVTVSS
VL: QAVVTQEPSLTVSPGETVTLTCASSTGAVTSGYYPNWFQQRPGQAPRALIYSTSNKDSWTPARFSGSLLGGKAALTLSGVQPEDEAEYYCLLYYGGAWVFGGGTKLTVL
notes: VH of A-012 with VL of A-005; IgG1 format; also called B3; Chains-B-003
B2: B-005 (chain-swapped, human IgG1 format) (antibody, V domains shown)
VH: B1 VH
VL: B1 VL with E16G, L20P, A23G, Y33N, Y34L, R41K, D57H, F64I
notes: VH of A-012 with VL of A-002; IgG1 format; also called B5; Chains-B-005
B3: A-013 (human IgG1 format) (antibody, V domains shown)
VH: B1 VH with L5V, V24A
VL: B1 VL with E16G, G32A, R41K, D57H, E87D
notes: human IgG1 format
B4: A-011 (human IgG1 format) (antibody, V domains shown)
VH: QVQLVESGGGVVQPGRSLRLSCAASGFTFSSYAMHWVRQAPGKGLEWVAVISYDGSNKYYADSVKGRFTISRDNSKNTLYLQMNSLRAEDTAVYYCAEGGALNYYGMDVWGQGTTVTVSS
VL: SSELTQDPGVSVALGQTVRITCQGDSLRHFYATWYQQKPGQAPILVIYGKNNRPSGIPDRFSGSSSEDTASLTITGAQAEDEADYYCQSRDPRNNHLIFGGGTKLIVL
notes: human IgG1 format
B5: A-024 (human IgG1 format) (antibody, V domains shown)
VH: QMQLVQSGAEVKKPGSSVKVSCKASGGTFSSYAISWVRQAPGQGLEWMGWISAYNGNTNYAQKLQGRVTMTTDTSTSTAYMELRSLRSDDTAVYYCASLGSYGYTGAFDIWGQGTMATVSS
VL: QSALTQPASVSGSPGQSITISCTGTSSDVGGYNYVSWYQQHPGKAPKLMIYEVSNRPSGVSNRFSGSKSGNTASLTISGLQAEDEADYYCSSYTSSSTLVVFGGGTKLTVL
B6: A-004 (human IgG1 format) (antibody, V domains shown)
VH: EVQLVESGGGLVKPGGSLRLSCAASGFTFSSYSMNWVRQAPGKGLEWVSSISSSSSYIYYADSVKGRFTISRDNAKNSLYLQMNSLRAEDTAVYYCARGQLLWFGESALIDAFDIWGQGTMVTVSS
VL: EIVLTQSPSSLSASVGDRVTITCRASQSISSYLNWYQLKPGKAPKLLIYAASILQSGVPSRFSGSGSGTDFTLTISSLQPEDFAAYYCQQSYSTPRTFGQGTKLEIK
notes: human IgG1 format
B7: A-034 (human IgG1 format) (antibody, V domains shown)
VH: QMQLVQSGGGLVKPGGSLRLSCAASGFTFSSYTMNWVRQAPGKGLEWVSSISSIGTYIYYADSVKGRFTISRDNAKNSLYLQMNSLRAEDTAVYYCARVLLSGSYYGYFDSWGQGTLVTVSS
VL: QSVLTQPPSVSGAPGQRVTISCTGSSSNIGAGYDVHWYQQLPGTAPKLFIYGNSNRPSGVPDRFSGSKSGTSASLAITGLQAEDEADYYCQSYDSSLSGYVFGTGTKVTVL
notes: human IgG1 format
B8: A-007 (human IgG1 format) (antibody, V domains shown)
VH: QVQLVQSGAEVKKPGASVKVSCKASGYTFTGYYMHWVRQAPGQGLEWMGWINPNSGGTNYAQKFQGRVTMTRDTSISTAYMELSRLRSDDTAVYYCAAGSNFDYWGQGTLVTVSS
VL: QSALTQPASVSGSPGQSITIACTGSSSDIGSFSYVSWYQQRPGKAPTLIIYGVNNRPLGVSRRFSGSKSGNTASLSISGLQAEDEADYYCSSYTRRSTVIFGGGTKLTVL
notes: human IgG1 format
B9: A-022 (human IgG1 format) (antibody, V domains shown)
VH: EVQLLESGPGLVKPSQTLSLTCTVSGGSISSGGYYWSWIRQHPGKGLEWIGYIYYSGSTYYNPSLKSRVTISVDTSKNQFSLKLSSVTAADTAVYYCARASRSTDYYFDYWGQGTLVTVSS
VL: QPGLTQPPSMSYGLGQTATLTCTGNRNNIGDQGAAWLQQHQGHPPKLLSYRNNNGPSGISERLSASRSGNTASLTISGLQPEDEADYYCSAWDSSLRAWVFGGGTKLTVL
notes: human IgG1 format
B10: A-026 (human IgG1 format) (antibody, V domains shown)
VH: QVQLQESGPGLVKPSQTLSLTCTVSGGSISSGGYYWSWIRQHPGKGLEWIGYIYYSGSTYYNPSLKSRVTISVDTSKNQFSLKLSSVTAADTAVYYCASWSLGTSNHGWFDPWGQGTLVTVSS
VL: QSVLTQPPSASGTPGQRVTISCSGSSSNIGSNTVNWYQQLPGTAPKLLISDNNNRPSGVPDRFSGSKSGTSASLAITGLQAEDEADYYCQSYDSNLSGWVFGGGTKLTVL
notes: human IgG1 format
B11: B-008 (chain-swapped, human IgG1 format) (antibody, V domains shown)
VH: B1 VH with L5V, V24A
VL: B1 VL with E16G, L20P, A23G, Y33N, Y34L, R41K, D57H, F64I
notes: VH of A-006 with VL of A-002; IgG1 format; also called B8; Chains-B-008
B12: B-007 (chain-swapped, human IgG1 format) (antibody, V domains shown)
VH: B1 VH with L5V, V24A
VL: B1 VL with E16G, G32A, R41K, D57H, E87D
notes: VH of A-006 with VL of A-013; IgG1 format; also called B7; Chains-B-007

The first assay deals with T1, extracellular domain (ECD) of human …. Put plainly: blocking ELISA (Example 5): IgG titrated and pre-incubated with 200 nM his-tagged IGSF11 ECD, complexes added to immobilised VSIR-Fc, bound IGSF11 detected with anti-hexahistidine-HRP; blocked ligand: VSIR-Fc. (In general: ELISA stands for enzyme-linked immunosorbent assay.)
With B1, the “IC50 (read off the curve)” value is approximately 2 nM.
Turning to B2, the “IC50 (read off the curve)” value was approximately 2 nM.

The next assay concerns the target T2, IGSF11 (VSIG3), construct used in SPR …. Put plainly: SPR (Biacore), IgG1 format; IGSF11 construct not stated. (In general: SPR reads the build-up and loss of mass on a sensor chip optically.)
As for B3, the Kd (commonly a measure of binding affinity in units of concentration) was 100 to 250 nM.
The molecule B4 gave an equilibrium dissociation constant (Kd) of 250 to 500 nM.
In turn, B5 yielded a Kd of more than 500 nM.
The same measure, in the same setting: as for B6, the figure is 100 to 250 nM.
Still for that read-out and setting: then B7, with 250 to 500 nM.

The target in a further assay is T1, extracellular domain (ECD) of human …. Put plainly: ELISA, coated IGSF11-HIS, IgG1 format; EC50 grade (* >1 nM, ** 0.05-1 nM, *** 0.02-0.05 nM, **** <0.02 nM).
With B8, the EC50 – broadly, the concentration needed to bring the measured effect to its halfway point – is less than 0.02 nM.
B9 returned an EC50 of less than 0.02 nM.
Same read-out and setting: then B3, with less than 0.02 nM.
For the molecule B4, the concentration for a half-maximal effect (EC50) was less than 0.02 nM.
On the same count and under the same terms, as for B5, the figure is 0.02 to 0.05 nM; as for B6, less than 0.02 nM; as for B7, 0.05 to 1 nM.

The next assay addresses CL-11 (C). The experiment in a line: FACS on CL-11 cells (do not express IGSF11; negative cell line) treated with scrambled control siRNA (SC).
As for B8, the percentage binding was 8.88%.
Still for that read-out and setting: as for B4, the figure is 2.87%.
Still for that read-out and setting: then B10, with 3.6%.

The target of a further assay is CL-11 (C). Put plainly: FACS on CL-11 cells (do not express IGSF11; negative cell line) treated with IGSF11 siRNA (KD).
Take B8: the percentage binding is 13.2%.
B4 displayed a percentage binding of 4.86%.
Still for that read-out and setting: as for B10, the figure is 3.47%.

In a further assay the target is T3, human IGSF11 (VSIG3) expressed on the …. The experiment in a line: FACS, IgG1 format, DMS 273 cells. (A flow cytometer gives signals particle by particle.)
Consider B8, for which the EC50 was more than 10 nM.
Still for that read-out and setting: as for B9, the figure is 10 to 50 nM; as for B3, more than 50 nM; as for B5, less than 10 nM.

The target is the same in a further assay. The experiment in a line: FACS on M579-A2-luc cells treated with IGSF11 siRNA (KD: target knocked down, specificity control).
Take B8: the percentage binding was determined as 9.15%.
Turning to B4, the percentage binding turned out to be 2.41%.
Same read-out and setting: then B10, with 2.01%.

A further assay has the same target. Put plainly: FACS on M579-A2-luc cells treated with scrambled control siRNA (SC).
As for B8, the percentage binding worked out at 65.6%.
For the molecule B4, the percentage binding worked out at 2.05%.
Still for that read-out and setting: as for B10, the figure is 11.6%.

For the next assay the target is unchanged. Put plainly: FACS on DMS 273 cells treated with IGSF11 siRNA (KD: target knocked down, specificity control).
On to B8, for which the percentage binding was 34.2%.
In the case of B4, the percentage binding was found to be 3.4%.
Consider B10, for which the percentage binding worked out at 3.81%.

The target is the same in another assay. Put plainly: FACS on DMS 273 cells treated with scrambled control siRNA (SC).
For the molecule B8, the percentage binding stood at 82.3%.
On the same count and under the same terms, then B4, with 6.95%; and B10, with 64.4%.

The next assay addresses T2, IGSF11 (VSIG3), construct used in SPR …. The experiment in a line: BLI (Octet), IgG1 format; IGSF11 construct not stated.
Turning to B4, the Kd was in the range of 10 to 20 nM.

Another assay deals with T1, extracellular domain (ECD) of human …. Put plainly: blocking ELISA (Example 5): IgG titrated and pre-incubated with 200 nM his-tagged IGSF11 ECD, complexes added to immobilised VSIR-Fc, bound IGSF11 detected with anti-hexahistidine-HRP; blocked ligand: VSIR-Fc. The source holds these as a separate data set.
With B11, the “IC50 (read off the curve)” value is approximately 4 nM.
On the same count and under the same terms, then B12, with approximately 3 nM.

For another assay the target is unchanged. Put plainly: ELISA: IGSF11-HIS coated, IgG1 antibody titrated, anti-human antibody-HRP and TMB; X-axis nM and Y-axis absorbance per legend paragraph 30.
B1: the EC50 (read off the curve) (commonly the concentration at which the effect is half-maximal) was approximately 0.009 nM.
Same read-out and setting: then B2, with approximately 0.01 nM.

A further assay has as its target T3, human IGSF11 (VSIG3) expressed on the …. Put plainly: FACS, IgG1 format, recombinant HEK cells expressing IGSF11 (HEK-OE).
As to B8, the EC50 is more than 10 nM.
As for B9, the EC50 lay within 10 to 50 nM.
As to B3, the EC50 is 10 to 50 nM.
For B4, the EC50 was more than 50 nM.
Take B10: the EC50 was more than 50 nM.
